A protein production outcome set (Wang et al. 2014)

Assay: label from the status in PepcDB records

Row | Sequence | protein production
1 | MLHKVVQVRLYPSIEQKVQLAQAFGCSRWWWNYALNKSIETYKETGKGLTRAALNALLPNLKKAEDTCWLADCYSQVLQATTLNLTTAYKNFFEKRAGFPKFKSKHGKQSIQYPQNVKIVDGESSPVRAASRREGGFPSVGNWRSRSVSEGFTRKGNIKLPGNIGIVKAKIHRPIEGKIKTVTVSKTPSGKYLASILTEVEGVSTPLNTSEKPAITEGKIYGIDLGLKHFAVVSDGEKISKYDNPKHLAKHEKNLKRKQKKLARKVKGSNSRNRYRKVVAKVYERVSNSRQDFLHKLSYKLVSDSQAVIVENLHLLGMVRNHKLAKSISDAGWGMFTNFLAYKLERKGGKLVEIDRWFPSSKLCSNCFYQIGEMPLDVREWTCPSCGTHHDRDGNAAINIRAEGIRMIKAEGSAVSAVGGEVSPKLGRKSKFGHSPVITEADTVLGTPSQCG | failed
2 | MKFIRRCMMETRYTVRQAVEMTGVKSYVLRYWEEELELQIHRNELGHRYYTGYDIQLFLNIKELKKRGLQLRAIKNLIPQITASMTGFGESASTLLEGEVIDHAEVKTDRDLKEKISKKDEGKNDKILEFQAILERLITQELKAQNEDEERCRSLDYAIRRQQLARKEAAAAAEKKSGRRRRDK | not failed
3 | MYDYSILPNRIILCVDLRSFYASVSCIKMGLDPMHTKLAVVGDVNRNGSIVLAATPPLKALGVKKMARLYEIPRRKDILVVNPIMSTYIKCSNYITKLALQYVPIEDFHQYSIDEFFMDITDSIHLFAQDPYEFAMKFKREIYDHTRIECTIGIAPNPLMSKVALDIEAKKNKDGIAFWQYEDIPTKLWSIRPLNKFWGISYKTEEKLNRKGIYSIGDLANYPLKYLKQSFGKIGEELHLHSHGIDFSRISEKYVPATTSIGKSQILMRDYTIEEFPIILLEHIEEVCYRLRRQTKLAQTIHFSVGYSKSYTGGIRKTHTLNRPTNLTMDIYHICTYFLHQQYTGEPIRSINISLTNLIQEGEEQISLFDNVTKREQEMKLTKVMDEIRTKFGKNSILRGISYTHSATARHRNTLIGLEHHHHHH | failed
4 | WTCNKFRCGEKRLTRSLCACSDDCKDQGDCCINYSSVCQGEKS | not failed
5 | MKMKILGISFGTKNGNNDTMCKVALKGAKEAGAEVEFIQMSSINIKHCTGCCACVKTLLSGKGSMCVLKDDFEWLLDKMKDADGIVVSDPIFEEGASGLFHTIMDRFGPRADRGNNIIGTKVAEAIGGKIPDSRMLNDKVISFMGIGGSDWGTRVQCEHAMLALIPMWKVIDNAWFPWAKELVMDDTRLVQVHQIGLNIVEAAKDFEKASYQGEEGVCPHCHNRLFYLEPGTKKAICALCGIVGELDTISGKTIFSFPEEQLGHAHDTLPGKFIHGDDIKKMEGHYAEVRKTQEFKERKTSYNFIETLTKEKQAGLEHHHHHH | failed
6 | MVSSLSVYYRKLAYHVIESDGFLWVGFKPGMVHFIAKEVWNIRPLTRTDVERYYEEFTVLTQGKGSLYFRIVAHGGFLKEALAYELHGLTVSDDNYLRSLNSGRHVELYPHNEKAYRAIIKGFEQHRIGTVVQATGTGKSYLLARYISDHATERICVFAPNVTILEEIKKAVGFTSPYICYRTFQSLIYYRKNDKQLKADHILIDEFHHFGAEIWGAALQEVIESNPQAYILGTSATPIRPEGMIDTVDLYFEGNLFYELTLPQAWYYRILPVPILVQSAYGLDGELNRLQKRLDRSGCSIRRKEQVQKKLDVARVDFKGALGAPEVIRKFLPKDVCKLLVFCRDLTDLKQMVPEVCGWLTQAGRVIIPFEIHHTQSERINNQILKAFQKESGKLHVLFSVNMLIEGLHVEGIDAVLFLRRTESYIVTLQQLGRCLDAGSGKQPVVLDFVNNLSGKSVYDMMALHMERLACQPSPKGFEGVTSFLTTGFLSDIRLRIEEILTELEPWQIMYERLIEFRKKENDWPSVTEGKLGLWCNTQRMAYKRGRLSEERYKLLESVGFEWNLLDSNWMKEFQSLKVFFATQGRWPKREDGALATWCYTQRERRKKGRLSKERIRVLDEIGFVWSQDLNGEWMKNYEALKIFLDKQQRFPKSAEGYLGEWCSTQRKMRKQGKLSPDRQTLLDRIGFVWSVEQVWRSHLEQLHQFHVQNGRWPGCREGALGRWCTVQRRNYRRGSLSDQKIVQLEQIGFIPLKGDE | failed
7 | SIDLRLQYLATRELRNAIAEQDAKAGSLVIMDVKTGEVLAMVNQPTYNPNNRRSMFPAAMRNRAIIDVFEPGSTVKPISMSAALQSGRWKPTDKVEVYPGSLQIGRYTIKDVSRSEGPILDLTGILINSSNVGMSKIAFDIGGEAIYRVMSQVGLGQYTGLGFPGERVGNLPNHREWRKAETATLSYGYGVSVTALQLVHAYAALANDGKMVPLSIIKVDKTPEAVQAIPKEVAETVQGMLQQVIEAPRGVFRAQVPFYHVAGKSGTARKATVGAKGYTENAYRSLFAGFGPMSDPRYAIVVVIDEPRKGGYFGGLVSAPVFSNVMSGTLRLMNVPPDNLPPPAPAPAVPSQVNAAAAKGGRG | failed
8 | MSAATPPFRDPQLPFAKRVDDLMSRLTLDEKTAFLHQFAPAVERLGIAPFRTGQEALHGVAWMGPATVFPQAVGLGATWNEELVRRVGEAVSKEARAMRARDDRVGLNVWSPTVNLLRHPLWGRNEEGYSEDPRLTSAVATAYTRGLRGDHPAYWRTAPVLKHWLAHNNETDRDTSSSSVRPRVLHEYDLRAFRDTVEAGAVAGVMPAYNLVNGRPNHLSPHLGRHLRTWTQEDLLVCSDAGAPSNLVDSEHYFDTHEEATAAALRAGVDSFTDHGTDSSKIVARVRGALEAGLLTEADVDAAVRRQLSVRFRLGEFDPENDPYSGAADTGADFDTPEHRALARDAAEQAVVLLKNDGVLPLAPETRVAVVGLLADECKLDWYSGTLIHRSTPLEGLYERFGADRVSFAEGVDRVRLRTADGRFLHVLPADDASAEAPGTEGALDPALLAGRTDLPPLTTDAVGTELALIDWGEGVLTLRASDGRYLSVAEDGFVRASADQPGGWVVQETFRLEPHDDGHLLRHTGTGRPVQVAADGVKVAAPDAAAGAAAGGAGSADAEVFELVVVERGEDAVTRVAAGADVVVVVAGNDPHINGRETEDRTTLRLPAQQERLLRAARAANPATVLALVSAYPYAVGVETLPAVLWTAHGGQAAGTALARILAGDVSPAGRLPQTWYSDDADLPGLLDYDVIGGRQTYLYFEGTPLFPFGHGLSYASFGYGDLTAQVRDGAVAVSFTVTNTGEVSADEVAQLYVRAEAPSVPRPRRELLAHRRLTLAPGASDRVSFEVPLSALAFWDVAHDRWRLEPGPYALLVGASSEDVRLTTTVTIDGEPAVPRPVGARGVQAVDFDEQSGTEIVDRTKAAGDAVAAVSGRTGELLYRDCDFGAGAAGVTVSVAGAGSVEVALDGGPAVAVLSPDAPTAGPYDYVELASAFTAEGVHDLRVTLRGALRLAHVGFSG | failed
9 | MKGTKKLAWLGLLLVLPVLAQATTVTYSALTVRELGNFLMNLPTGFYAIAPAAAKNMMDTVDVFILDVREPNEFAGERIQGAVNIPIRDLPKRVGELPKGKPIIVYCKVGHRGSMAMMFLRGQGYNVQSISGGLDGWKNAGLPVVK | failed
10 | KIERDKAERAKKYGGSVGSQPPPVAPEPGPVPSSPSQEPPTKREYDQCRIQVRLPDGTSLTQTFRAREQLAAVRLYVELHRGEELGGGQDPVQLLSGFPRRAFSEADMERPLQELGLVPSAVLIVAKKC | failed
11 | MKIPSVFMLEQQKASLQLHVKQLANEAIQKSAPSAWFEVLYAEAQGDTTQIPWAKLTPHPYLQEWLTNHQPFPSGQKALVIGCGLGDDAEALAKLGFAVTAFDISPTAIAWCGQRFPNSNVNYIVADLLAIPPQWHLAFDFVFECRNIQALPLNIRAEVITSIASVVAPDGTLLLINRVRLEHHHHHH | failed
12 | MSIRPATHAGSWYSNRAQELSQQLHTYLIKSTLKGPIHNARIIICPHAGYRYCGPTMAYSYASLDLNRNVKRIFILGPSHHIYFKNQILVSAFSELETPLGNLKVDTDLCKTLIQKEYPENGKKLFKPMDHDTDMAEHSLEMQLPMLVETLKWREISLDTVKVFPMMVSHNSVDVDRCIGNILSEYIKDPNNLFIVSSDFCHWGRRFQYTGYVGSKEELNDAIQEETEVEMLTARSKLSHHQVPIWQSIEIMDRYAMKTLSDTPNGERYDAWKQYLEITGNTICGEKPISVILSALSKIRDAGPSGIKFQWPNYSQSSHVTSIDDSSVSYASGYVTIG | failed
13 | MENRKLAVLIDADNAQSSLIAELLAEVAKYGTAIVKRAYGDWTTTQLKGWKEVLHQYAISPIQQFAYTKGKNSTDSALIIDAMDLLYTGNFDGFCLVSSDSDFTRLATRLREGGLTVIGLGEQSKTPRPFIAACDKFVFTEILRPAPPAKPKPETAATADKPKARSSRTRAKAAPHKEKHPLQDMFTSAIEAVARDSGWAELSAVGSYLAKNDPSFDPRNWGHGRLSQMVKKLDFLTVQESRNGSKLHSEIRLRHDGEAAVAEPAAPVETPQPSPSEEAAPPPRKKRSPRKKISPAGLEHHHHHH | failed
